This note sets out measurements from patent US20120316107A1 (CASE WESTERN RESERVE UNIVERSITY, published 2012).

What is called Kd is the concentration at which binding is half-saturated. High values mean weaker binding, low ones tighter binding.

Positions count from the first letter of the chain named. Where no end group is shown, it is not given here.

Experiment [1] deals with T1, Insulin-like Growth Factor receptor (UniProt P08069 31-1367, limits assumed).
T1 construct: Captured on antibody-coated microtiter plates; the construct is not described; also called IGFR; IGF Type I receptor
Briefly: competitive displacement of 125I-IGF-1 from IGFR.

In experiment [2] the target is T1, Insulin-like Growth Factor receptor. Briefly: competitive displacement of labelled ligand, receptor captured on anti-FLAG IgG plate, two-site sequential model. The protocol:
DNA for transfection was prepared according to the method of Mynarcik et al. (J. Biol. Chem., 1997, 272, pp 18650-18655). The receptor cDNAs were expressed transiently in PEAK rapid cells using polyethyleneimine. Cells were harvested by lysis in 0.15M NaCl and 0.1M Tris (pH 8) containing 1% (v/v) Triton X-100 and protease inhibitor cocktail three days post-transfection. Lysates were stored at −80° C. until assay. Receptor-binding assays were performed as described by Mynarcik. Microtiter strip plates (Nunc Maxisorb) were incubated overnight at 4° C. with anti-FLAG IgG ([…] in PBS). Washing, blocking, receptor binding and competitive binding assays with labeled and unlabeled peptides were performed as described.

B1: single chain insulin (SCI) that is wild type at position B10 (His^A8, Asp^B28, Pro^B29) (ligand)
chain: FVNQHLCGSHLVEALYLVCGERGFFYTDPTGGGPRRGIVEQCCHSICSLYQLENYCN
notes: also called A8-His, B28-Asp, B29-Pro SCI; SCI not containing the Asp^B10 substitution
As to B1, the dissociation constant Kd in experiment [1] and in experiment [2] was 27.6 nM throughout.

B2: 57 mer single-chain insulin analogue (His^A8, Asp^B10, Asp^B28, Pro^B29; GGGPRR linker) (ligand)
chain: B1 chain with H10D
modifications: ends and bridges not checked; cysteine pairing not given here
notes: also called 57mer single-chain analogue; 57-mer single-chain Analog
Regarding B2, the affinity in experiment [2], expressed as Kd, was 9.89 nM.
